# Measured values published in publication PMC11969024 (2025).
# B1: peptide HD2 (from tick evasin EVA4) / CCL22 (biotinylated, synthetic) (parent complex)
# chain 1: EEDDYTAYAPLTCYFT
# chain 2: GPYGANMEDSVCCRDYVRYRLPLRVVKHFYWTSDSCPRPGVVLLTFRDKEICADPRVPWVKMILNKLSQ
# Variants of: B1
row,Variant,enrichment
1,chain 1 T12L,0.0229 log2 (difference from the parental peptide)
2,chain 1 T12C,-1.01 log2 (difference from the parental peptide)
3,chain 1 T12G,-10.3 log2 (difference from the parental peptide)
4,chain 1 T12Q,0.207 log2 (difference from the parental peptide)
5,chain 1 T12D,-6.65 log2 (difference from the parental peptide)
6,chain 1 L11E,0.55 log2 (difference from the parental peptide)
7,chain 1 L11K,0.195 log2 (difference from the parental peptide)
8,chain 1 A9W,-3.76 log2 (difference from the parental peptide)
9,chain 1 A9L,-6.75 log2 (difference from the parental peptide)
10,chain 1 A9G,-7.69 log2 (difference from the parental peptide)
11,chain 1 A9S,-2.79 log2 (difference from the parental peptide)
12,chain 1 A9N,-4.75 log2 (difference from the parental peptide)
13,chain 1 E2W,-1.93 log2 (difference from the parental peptide)
14,chain 1 E2Q,-3.9 log2 (difference from the parental peptide)
15,chain 1 E2N,-3.61 log2 (difference from the parental peptide)
16,chain 1 E2L,-2.82 log2 (difference from the parental peptide)
17,chain 1 E2T,-3.84 log2 (difference from the parental peptide)
18,chain 1 E2S,-3.12 log2 (difference from the parental peptide)
19,chain 1 E2V,-2.63 log2 (difference from the parental peptide)
20,chain 1 E2M,-2.95 log2 (difference from the parental peptide)
21,chain 1 P10E,-6.9 log2 (difference from the parental peptide)
22,chain 1 P10F,-9.41 log2 (difference from the parental peptide)
23,chain 1 C13M,-3.12 log2 (difference from the parental peptide)
24,chain 1 C13F,-6.63 log2 (difference from the parental peptide)
25,chain 1 C13A,-6.82 log2 (difference from the parental peptide)

row,Variant,enrichment
1,chain 1 C13S,-3.73 log2 (difference from the parental peptide)
2,chain 1 A7Q,2.25 log2 (difference from the parental peptide)
3,chain 1 A7D,1.26 log2 (difference from the parental peptide)
4,chain 1 A7T,-1.44 log2 (difference from the parental peptide)
5,chain 1 A7V,-3.51 log2 (difference from the parental peptide)
6,chain 1 A7M,1.59 log2 (difference from the parental peptide)
7,chain 1 A7E,1.56 log2 (difference from the parental peptide)
8,chain 1 A7P,1.84 log2 (difference from the parental peptide)
9,chain 1 D4A,-8.08 log2 (difference from the parental peptide)
10,chain 1 D4N,-4.06 log2 (difference from the parental peptide)
11,chain 1 D4F,-7.18 log2 (difference from the parental peptide)
12,chain 1 D4Y,-4.71 log2 (difference from the parental peptide)
13,chain 1 T16L,0.694 log2 (difference from the parental peptide)
14,chain 1 T16E,0.53 log2 (difference from the parental peptide)
15,chain 1 T16S,1.36 log2 (difference from the parental peptide)
16,chain 1 T16K,2.2 log2 (difference from the parental peptide)
17,chain 1 T16W,-0.731 log2 (difference from the parental peptide)
18,chain 1 T16I,0.113 log2 (difference from the parental peptide)
19,chain 1 T16Y,-0.842 log2 (difference from the parental peptide)
20,chain 1 T6E,2.68 log2 (difference from the parental peptide)
21,chain 1 T6D,3.79 log2 (difference from the parental peptide)
22,chain 1 T6M,-1.14 log2 (difference from the parental peptide)
23,chain 1 T6S,3.56 log2 (difference from the parental peptide)
24,chain 1 E1L,-1.9 log2 (difference from the parental peptide)
25,chain 1 E1K,-4.48 log2 (difference from the parental peptide)

row,Variant,enrichment
1,chain 1 E1W,-2.09 log2 (difference from the parental peptide)
2,chain 1 E1P,-2.84 log2 (difference from the parental peptide)
3,chain 1 E1R,-5.65 log2 (difference from the parental peptide)
4,chain 1 E1I,-1.58 log2 (difference from the parental peptide)
5,chain 1 D3I,-5.15 log2 (difference from the parental peptide)
6,chain 1 D3E,1.1 log2 (difference from the parental peptide)
7,chain 1 D3A,-3.86 log2 (difference from the parental peptide)
8,chain 1 D3G,-4.28 log2 (difference from the parental peptide)
9,chain 1 Y8A,-7.77 log2 (difference from the parental peptide)
10,chain 1 Y8W,-2.54 log2 (difference from the parental peptide)
11,chain 1 Y8D,-7.54 log2 (difference from the parental peptide)
12,chain 1 Y8F,-0.0331 log2 (difference from the parental peptide)
13,chain 1 F15M,0.54 log2 (difference from the parental peptide)
14,chain 1 F15S,-0.181 log2 (difference from the parental peptide)
15,chain 1 F15R,0.817 log2 (difference from the parental peptide)
16,chain 1 F15V,0.452 log2 (difference from the parental peptide)
17,chain 1 F15E,-3.12 log2 (difference from the parental peptide)
18,chain 1 Y5T,-6.08 log2 (difference from the parental peptide)
19,chain 1 Y5H,-5 log2 (difference from the parental peptide)
20,chain 1 Y5E,-3.48 log2 (difference from the parental peptide)
21,chain 1 Y5D,-5.05 log2 (difference from the parental peptide)
22,chain 1 Y14C,-2.09 log2 (difference from the parental peptide)
23,chain 1 Y14D,-4.53 log2 (difference from the parental peptide)
24,chain 1 Y14Q,-0.26 log2 (difference from the parental peptide)
25,chain 1 Y14H,2.15 log2 (difference from the parental peptide)
